Test results as given in article doi:10.1101/2022.02.16.480668 (bioRxiv, 2022).

Target: the molecule itself
Assay: negative-stain electron microscopy of filaments on vesicles

B1: Vps60 (natural protein)
chain: MNRIFGYGNKKSHDQLLQESNQSMNQAQQSLSNRISQLDTQIAQLNFQLQNIQKNLQRSNNKQPSLRKQALKILNKRKQLENMKDSLDSQSWSMTQAQLTNDNLQNTMITINALKQTNNAMKAQYGKINIDKLQDMQDEMLDLIEQGDELQEVLAMNNNSGELDDISDAELDAELDALAQEDFTLPTSENSLGNDMPSYLLGANAPPAFIDEEPNLDTEDKNKALESAQ
modifications: Atto-565 (TFP ester labelling) where fluorescence was read; labeled protein mixed 1:1 with unlabeled protein
binding result: binds
